Measurements reported in patent US20240269676A1.

Experiments:
[1] = target: gp100 antigen presented on the surface of B16F10 (gp100+) mouse melanoma cells treated with 1 µM hgp100 peptide (human) (UniProt P40967); assay: cell-based or functional assay
[2] = target: gp100 antigen presented on the surface of B16F10 (gp100+) mouse melanoma cells treated with 1 µM hgp100 peptide (human) (UniProt P40967); assay: microfluidic shear detachment of primary mouse T cells from hgp100-pulsed B16F10 monolayer

T cell receptor of TCR-transgenic Thy1.1+ pmel-1 (Pmel) mouse T cells
IFN-γ secretion (ELISA of overnight T cell-B16F10 co-culture media) [1]: 2120 pg/mL | percent of T cells remaining bound at 1.9 Pa [2]: 19.4%
